US20240294647A1

What was measured:
[1] = target: human CD16A-158V ECD fused to monomeric Fc (human) (UniProt P08637); test: SPR (Biacore T200), receptor captured, 1:1 model
[2] = target: human CD16A-158F ECD fused to monomeric Fc (human) (UniProt P08637); test: SPR (Biacore T200), receptor captured, 1:1 model
human CD16A-158F ECD fused to monomeric Fc (human), sequence (P08637 17-208): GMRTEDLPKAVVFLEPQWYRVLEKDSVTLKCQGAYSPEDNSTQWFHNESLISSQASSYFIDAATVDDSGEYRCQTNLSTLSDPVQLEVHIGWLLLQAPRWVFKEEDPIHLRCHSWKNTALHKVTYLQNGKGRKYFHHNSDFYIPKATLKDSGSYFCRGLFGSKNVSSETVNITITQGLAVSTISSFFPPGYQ

human CD16A-158V ECD fused to monomeric Fc (human), sequence (P08637 17-208 F176V): as the sequence (P08637 17-208) above, with F160V counted along it

Substance	Kd [1]	koff [1]	kon [1]	Kd [2]	koff [2]	kon [2]
human IgG1 Fc (enhanced, S239D/I332E) (antibody)	13.5 nM	0.00639 s⁻¹	474000 M⁻¹ s⁻¹	–	–	–
human IgG1 Fc (silenced, L234F/L235E/D265A) (antibody)	–	–	–	34700 nM	0.71 s⁻¹	20400 M⁻¹ s⁻¹
human IgG1 Fc (wildtype) (antibody)	424 nM	0.00995 s⁻¹	23500 M⁻¹ s⁻¹	2720 nM	0.0675 s⁻¹	24800 M⁻¹ s⁻¹
